Columns and labels:
[1] = target: T1, DR5 (UniProt O14763 56-182, limits assumed); assay: ELISA
T1 construct: also called TRAIL-R2

[2] = target: T2, Recombinant human rTRAIL receptor 1 (DR4), extracellular part, amino acids 25-239 (human, UniProt O00220 25-239); assay: ELISA, DR4 coated at 50 ng/well, IgG1 detected with anti-human Fc-HRP
T2 construct: also called rDR4; recombinant DR4
T2 sequence: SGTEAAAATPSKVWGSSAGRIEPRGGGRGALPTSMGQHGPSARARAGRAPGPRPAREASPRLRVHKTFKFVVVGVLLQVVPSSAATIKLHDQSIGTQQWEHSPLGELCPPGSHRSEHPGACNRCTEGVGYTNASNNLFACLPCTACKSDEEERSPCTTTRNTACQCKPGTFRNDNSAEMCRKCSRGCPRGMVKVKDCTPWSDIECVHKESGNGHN
Protocol: To testing binding of recombinant antibodies to DR4 in vitro, DR4 protein was coated onto half-area ELISA plate at 50 ng/well. After blocking with MPBS, different dilutions of antibodies were incubated with coated wells. For detection of binding antibodies, secondary antibody goat anti-Flag tag-HRP and goat anti-human Fc-HRP (both used at 1:1000) were used to detect Fab or IgG. The ELISA signal was developed with substrate ABTS, and read under wavelength 405 nm. […] The mixture was then added to wells for ELISA.

B1: m922 IgG1 (antibody, V domains shown)
VH: QVQLQQSGPGLVKPSQTLSLTCAISGDSVSSNSAAWNWIRQSPSRGLEWLGRTYYRSKWYNDYAVSVKSRITINPDTSKNQFSLQLNSVTPEDTAVYYCARETVAVDAFDIWGQGTMVTVSS
VL: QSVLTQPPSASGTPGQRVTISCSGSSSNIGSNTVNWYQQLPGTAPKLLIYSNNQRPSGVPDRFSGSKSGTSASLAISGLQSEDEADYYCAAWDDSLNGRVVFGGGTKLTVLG
notes: also called IgG m922; DR4 m922 IgG
binding result [1]: no binding (tested: 1000 nM)
EC50 [2]: ~10 nM

B2: m921 IgG1 (antibody, V domains shown)
VH: QVQLQQSGPGLVKPSQTLSLTCAISGDSVSSNSAAWNWIRQSPSRGLEWLGRTYYRSKWYNDYAVSVKGRITINPDTSKNQFSLQLNSVTPEDTAVYYCARDLGVAAADSYYYYGMDVWGQGTTVTVSS
VL: QPVLTQPPSASATPGQRVTISCSGSSSNIGSNTLDWFQQLPGTAPKLLIFDTNRRPSGVPDRFSGSKSGTSASLAISGLQAEDEAVYFCATWDNSLNGAVFGGGTKLSVPR
notes: also called IgG m921; DR4 IgG m921
binding result [1]: no binding (tested: 1000 nM)
EC50 [2]: ~10 nM

Reference: US20130156781A1 (GOVT OF THE UNITED STATES OF AMERICA H H N I H OFFICE OF …, published 2013)
